The assay has as its target T1, endogenous IRF3 of HEK293T cells (human (endogenous in HEK293T)), Q14653.
T1 chain: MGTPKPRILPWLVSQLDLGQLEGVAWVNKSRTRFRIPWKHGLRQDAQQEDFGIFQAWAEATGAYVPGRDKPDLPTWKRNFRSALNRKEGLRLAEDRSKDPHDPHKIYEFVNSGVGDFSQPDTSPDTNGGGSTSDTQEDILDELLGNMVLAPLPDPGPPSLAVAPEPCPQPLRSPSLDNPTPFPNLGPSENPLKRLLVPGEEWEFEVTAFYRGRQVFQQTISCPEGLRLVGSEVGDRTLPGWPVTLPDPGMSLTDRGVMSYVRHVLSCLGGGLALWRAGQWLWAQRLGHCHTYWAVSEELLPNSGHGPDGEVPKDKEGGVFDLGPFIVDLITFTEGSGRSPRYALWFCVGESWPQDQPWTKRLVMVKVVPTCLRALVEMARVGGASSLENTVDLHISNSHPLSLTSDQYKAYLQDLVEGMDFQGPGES
The assay can be described thus: native gel or EMSA; IRF3 dimer gel: lysate of HEK293T transfected 36 h with or without MDA5 and VP3; native PAGE, 25 mM Tris-HCl, 192 mM glycine, pH 8.4, 1% deoxycholate in the cathode chamber; blot with anti-IRF3. The conditions noted are these: remark: other sources report otherwise.

B1: endogenous IRF3 of HEK293T cells, Q14653 1-427 (natural protein)
chain: T1 chain
Take B1: the stoichiometry N was 2.
